Results reported in PMC6082395 (Journal of molecular biology, 2018).
Changes are numbered by the printed parent chain. Names may count otherwise.

B1: human WT c-Myb TAD (residues 275–327) (domain or fragment, UniProt P10242 275-327, looked up)
chain: PAAAAIQRHYNDEDPEKEKRIKELELLLMSTENELKGQQVLPTQNHTCSYPGW
B2: c-Myb TAD S304V (domain or fragment, human, UniProt P10242 275-327, looked up)
chain: B1 chain with S30V
B3: c-Myb TAD N307V (domain or fragment, human, UniProt P10242 275-327, looked up)
chain: B1 chain with N33V
B4: c-Myb TAD N307A (domain or fragment, human, UniProt P10242 275-327, looked up)
chain: B1 chain with N33A
B5: c-Myb TAD G311A (domain or fragment, human, UniProt P10242 275-327, looked up)
chain: B1 chain with G37A
B6: c-Myb TAD E292D (domain or fragment, human, UniProt P10242 275-327, looked up)
chain: B1 chain with E18D
B7: c-Myb TAD N307G (domain or fragment, human, UniProt P10242 275-327, looked up)
chain: B1 chain with N33G
B8: c-Myb TAD L300V (domain or fragment, human, UniProt P10242 275-327, looked up)
chain: B1 chain with L26V
B9: c-Myb TAD P289A (domain or fragment, human, UniProt P10242 275-327, looked up)
chain: B1 chain with P15A
B10: c-Myb TAD K296H (domain or fragment, human, UniProt P10242 275-327, looked up)
chain: B1 chain with K22H
B11: c-Myb TAD P289A/P316A (domain or fragment, human, UniProt P10242 275-327, looked up)
chain: B1 chain with P15A, P42A
B12: c-Myb TAD S304A (domain or fragment, human, UniProt P10242 275-327, looked up)
chain: B1 chain with S30A
B13: c-Myb TAD L300G (domain or fragment, human, UniProt P10242 275-327, looked up)
chain: B1 chain with L26G
B14: c-Myb TAD S304P (domain or fragment, human, UniProt P10242 275-327, looked up)
chain: B1 chain with S30P
B15: c-Myb TAD S304G (domain or fragment, human, UniProt P10242 275-327, looked up)
chain: B1 chain with S30G
B16: c-Myb TAD L300A (domain or fragment, human, UniProt P10242 275-327, looked up)
chain: B1 chain with L26A
B17: c-Myb TAD L300P (domain or fragment, human, UniProt P10242 275-327, looked up)
chain: B1 chain with L26P
B18: c-Myb TAD N307P (domain or fragment, human, UniProt P10242 275-327, looked up)
chain: B1 chain with N33P
B19: c-Myb TAD K293H (domain or fragment, human, UniProt P10242 275-327, looked up)
chain: B1 chain with K19H

These binders were tested against KIX domain of human CBP (residues 586–672) (human, UniProt Q92793 586-672) (assay: ITC).
Sequence of KIX domain of human CBP (residues 586–672) (Q92793 586-672): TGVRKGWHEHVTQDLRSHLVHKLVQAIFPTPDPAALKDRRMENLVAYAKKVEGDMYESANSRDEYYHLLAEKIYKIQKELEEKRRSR

| Kd [nM] | dH [kcal/mol] | Binder |
| --- | --- | --- |
| 500 ± 30 | -10.5 ± 0.4 | B1 |
| 1490 ± 290 | -8.39 ± 0.93 | B2 |
| 390 | -8.44 ± 0.04 | B3 |
| 410 ± 70 | -8.29 ± 0.6 | B4 |
| 460 ± 30 | -10.1 ± 0.26 | B5 |
| 630 ± 20 | -11.22 ± 0.05 | B6 |
| 610 ± 40 | -9.26 ± 0.23 | B7 |
| 820 ± 50 | -11.38 ± 0.11 | B8 |
| 620 ± 20 | -10.2 ± 0.27 | B9 |
| 870 ± 50 | -13.8 ± 0.48 | B10 |
| 530 ± 20 | -9.81 ± 0.1 | B11 |
| 380 ± 40 | -6.94 ± 0.51 | B12 |
| 2240 ± 20 | -11.33 ± 0.04 | B13 |
| 3450 ± 500 | -7.35 ± 0.97 | B14 |
| 710 ± 130 | -13.3 ± 2.69 | B15 |
| 670 ± 80 | -9.26 ± 0.39 | B16 |
| 290000 ± 101000 | -1.34 ± 0.29 | B17 |
| 950 ± 70 | -8.97 ± 0.32 | B18 |
| 780 ± 60 | -11.1 ± 2.1 | B19 |
